Molecular target: human Toll-like receptor 3 ectodomain (TLR3ecd) (Homo sapiens, UniProt O15455)
Assay: SPR

Kd: 0.0291 nM | koff: 0.000103 s⁻¹ | kon: 3.54e+06 M⁻¹ s⁻¹
B1: Fab1068 (Fab, V domains shown)
VH: QVQLQQPGAELVQPGTSVRLSCKASGYIFTTYWIHWVKQRPGQGLEWIGEINPNNGRINYNEKFKTKATLTVDKSSSTAYMQLSSLTSEDSAVYYCTRVGVMITTFPYWGQGTLVTVSA
VL: DIQMTQSPASLSASVGETVTITCRASGNIHNYLAWYQQKQGKSPQLLVYNAKTLADGVPSRFSGSESGTQYSLKINSLQPEDFGSYYCQHFWSTPFTFGSGTKLELK
